These are literature values, as cited in publication PMC12590814.

Read-outs that look alike come from different tables or passages of the source.

Series [1] addresses calmodulin (Homo sapiens) (UniProt P0DP23).
Series [2] has the same target. This is another data set of the same source.

With PMCA3 (from UniProt Q16720), the Kd in series [1] was 7.5 nM. Take PMCA2 (from UniProt Q01814): in series [2], the Kd is 7.5 nM.
